Consider three molecules from publication doi:10.1101/2022.10.31.514592 (bioRxiv, 2022).

One test addresses SARS-CoV-2 WT RBD (SARS-CoV-2, wildtype (Wuhan-Hu-1 type), UniProt P0DTC2). Nature of the test: ELISA. For orientation: An ELISA detects its analyte on a solid surface through an enzyme-linked reagent.
A further test addresses SARS-CoV-1 RBD (SARS-CoV-1, strain , UniProt P59594). The experiment in a line: ELISA.

B1: S728-1157 IgG (antibody, V domains shown)
VH: EVQLVESGGGLVQPGGSLRLSCAASGLLVSRNYMNWVRQAPGKGLEWVSIIYSGGSTFYADSVEGRFTISRDESKNTLYLQMNSLRTDDTAVYYCARDLSDYGGIDCWGQGTLVTVSS
VL: ELTQPLSVSMALGQTARISCGGDNVGSQNVHWYQQRPGQAPVLVIYRDSNRPSGIPERFSGSKSGNTATLTISRAQAGDEADYYCQVWDSSTVAFGGGTKLTVL
Take B1: the binding result with SARS-CoV-2 WT RBD is reported as “binds”.

B2: S626-161 IgG (antibody, V domains shown)
VH: QLQLQESGPGLVKPSEALSLTCTVSGGSISTSNYYWGWIRQPPGKGLEWIGSIYYRGGTHYNPSLKTRVTISVDTSKNQFSLKLSSVTAADTAVYYCARHTYFYDIVGAAVWEPFDIWGQGTMVTVSS
VL: not shown
Consider B2, for which the binding result in the test with SARS-CoV-2 WT RBD and in the test with SARS-CoV-1 RBD was “binds” in each case.

B3: S451-1140 IgG (antibody, V domains shown)
VH: EVQLVESGGGLVPPGGSLRLSCAASGFIFSNYAMTWVRQAPGKGLEWVSAISGGGGSTDYADSVKGRFTISRDNSKNTLYLQMNSLRAEDTAVYYCAKDLFGSGWSLFDNWGQGTLVTVSS
VL: not shown
As for B3, the binding result in the test with SARS-CoV-2 WT RBD is “binds”.
